Laboratory results from US20210009671A1 (AstraZeneca / MedImmune, published 2021).

What was measured:
[1] = target: Recombinant human NGF (Sigma) (human, UniProt P01138 122-241, limits assumed); experiment: cell-based or functional assay
[2] = target: Recombinant mouse NGF (R&D Systems) (mouse, UniProt P01139 122-241); experiment: cell-based or functional assay
Chain of Recombinant mouse NGF (R&D Systems) (P01139 122-241 limits assumed): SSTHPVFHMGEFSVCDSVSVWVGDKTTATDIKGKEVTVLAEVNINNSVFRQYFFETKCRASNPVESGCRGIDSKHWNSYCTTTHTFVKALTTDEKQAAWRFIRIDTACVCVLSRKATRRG

Chain of Recombinant human NGF (Sigma) (P01138 122-241 limits assumed): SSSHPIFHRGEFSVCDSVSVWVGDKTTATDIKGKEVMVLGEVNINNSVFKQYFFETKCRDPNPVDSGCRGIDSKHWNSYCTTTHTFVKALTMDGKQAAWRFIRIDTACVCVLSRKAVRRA

B1: MEDI-578 IgG1 TM YTE (antibody, V domains shown)
VH: QVQLVQSGAEVKKPGSSVKVSCKASGGTFSTYGISWVRQAPGQGLEWMGGIIPIFDTGNSAQSFQGRVTITADESTSTAYMELSSLRSEDTAVYYCARSSRIYDLNPSLTAYYDMDVWGQGTMVTVSS
VL: QSVLTQPPSVSAAPGQKVTISCSGSSSNIGNNYVSWYQQLPGTAPKLLIYDNNKRPSGIPDRFSGSKSGTSATLGITGLQTGDEADYYCGTWDSSLSAWVFGGGTKLTVL
IC50 (read off the curve), human NGF-induced TF-1 proliferation [1]: ~0.7 nM
IC50 (read off the curve), murine NGF-induced TF-1 proliferation [2]: ~0.3 nM
